Data published in patent US20180155451A1 (published 2018).
Substitutions are numbered along the chain they refer to.

T1: FcγRIIa R (extracellular domain with a His tag at the C terminus) (human, UniProt P12318 34-217)
T1 construct: extracellular domain; expressed in FreeStyle293 cells; also called FcgRIIa R; FcγRIIa type R; not shown: His tag at the C terminus
T1 sequence (looked up): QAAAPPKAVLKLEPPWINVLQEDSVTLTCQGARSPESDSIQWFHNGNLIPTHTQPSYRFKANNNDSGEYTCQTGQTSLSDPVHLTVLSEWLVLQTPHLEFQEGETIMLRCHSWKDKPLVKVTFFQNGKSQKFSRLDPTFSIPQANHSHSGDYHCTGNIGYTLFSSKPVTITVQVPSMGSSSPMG

T2: FcγRIIa H (human, UniProt P12318 34-217)
T2 construct: extracellular domain; also called FcgRIIa H type; 2aH; not shown: His tag at the C terminus
T2 sequence (looked up): T1 sequence (looked up) with R134H

B1: GpH7-B3 variant K334_04F/GpL16-k0 (antibody, human IgG1, kappa)
heavy: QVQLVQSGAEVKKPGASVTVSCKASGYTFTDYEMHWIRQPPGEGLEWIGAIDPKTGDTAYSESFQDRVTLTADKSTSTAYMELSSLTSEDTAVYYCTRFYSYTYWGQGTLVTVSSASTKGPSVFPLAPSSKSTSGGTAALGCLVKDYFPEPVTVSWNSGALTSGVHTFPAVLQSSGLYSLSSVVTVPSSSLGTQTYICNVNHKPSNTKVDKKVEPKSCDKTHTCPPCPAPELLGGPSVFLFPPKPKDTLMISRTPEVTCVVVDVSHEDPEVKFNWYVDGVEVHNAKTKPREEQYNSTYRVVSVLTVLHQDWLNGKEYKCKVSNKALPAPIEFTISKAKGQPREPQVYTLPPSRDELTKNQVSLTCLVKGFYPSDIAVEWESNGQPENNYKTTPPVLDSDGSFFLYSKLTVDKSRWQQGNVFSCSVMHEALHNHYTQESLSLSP
light: DIVMTQSPLSLPVTPGEPASISCQASESLVHSNRNTYLHWYLQKPGQSPQLLIYKVSNRFSGVPDRFSGSGSGTDFTLKISRVEAEDVGVYYCSQNTHVPPTFGQGTKVEIERTVAAPSVFIFPPSDEQLKSGTASVVCLLNNFYPREAKVQWKVDNALQSGNSQESVTEQDSKDSTYSLSSTLTLSKADYEKHKVYACEVTHQGLSSPVTKSFNRGEC
notes: homodimerized; mutation in both H chains; also called Ho Ab
B2: GpH7-B3 variant K334_13S/GpL16-k0 (antibody, human IgG1, kappa)
heavy: not shown
light: B1 light
notes: as for B1
B3: GpH7-B3 variant S267_03V/GpL16-k0 (antibody, human IgG1, kappa)
heavy: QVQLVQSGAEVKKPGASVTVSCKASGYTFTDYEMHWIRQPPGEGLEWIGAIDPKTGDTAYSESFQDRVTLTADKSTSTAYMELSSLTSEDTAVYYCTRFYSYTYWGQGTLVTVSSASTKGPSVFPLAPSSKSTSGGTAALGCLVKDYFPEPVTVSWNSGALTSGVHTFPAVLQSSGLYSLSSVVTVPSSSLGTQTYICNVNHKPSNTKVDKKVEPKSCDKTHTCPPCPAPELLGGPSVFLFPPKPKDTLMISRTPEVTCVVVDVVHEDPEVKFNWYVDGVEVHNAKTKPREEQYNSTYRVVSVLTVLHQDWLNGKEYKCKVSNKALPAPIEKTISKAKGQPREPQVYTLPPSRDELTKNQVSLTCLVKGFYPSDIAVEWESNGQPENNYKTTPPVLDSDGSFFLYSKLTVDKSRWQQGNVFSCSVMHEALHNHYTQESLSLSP
light: B1 light
notes: as for B1
B4: GpH7-B3 variant A330_12R/GpL16-k0 (antibody, human IgG1, kappa)
heavy: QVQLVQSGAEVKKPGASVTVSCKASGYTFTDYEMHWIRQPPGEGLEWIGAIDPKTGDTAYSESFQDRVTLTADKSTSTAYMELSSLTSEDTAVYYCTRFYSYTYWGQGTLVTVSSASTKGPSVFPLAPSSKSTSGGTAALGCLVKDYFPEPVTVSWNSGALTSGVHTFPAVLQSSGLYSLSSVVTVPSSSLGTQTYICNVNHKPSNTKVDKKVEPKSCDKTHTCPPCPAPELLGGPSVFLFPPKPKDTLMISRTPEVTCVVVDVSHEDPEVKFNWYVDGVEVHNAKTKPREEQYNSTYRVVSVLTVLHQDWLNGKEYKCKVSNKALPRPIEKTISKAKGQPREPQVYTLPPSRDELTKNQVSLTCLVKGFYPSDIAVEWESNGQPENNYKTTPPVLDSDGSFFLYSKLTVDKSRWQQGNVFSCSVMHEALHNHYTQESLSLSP
light: B1 light
notes: as for B1
B5: GpH7-B3 variant I336_08L/GpL16-k0 (antibody, human IgG1, kappa)
heavy: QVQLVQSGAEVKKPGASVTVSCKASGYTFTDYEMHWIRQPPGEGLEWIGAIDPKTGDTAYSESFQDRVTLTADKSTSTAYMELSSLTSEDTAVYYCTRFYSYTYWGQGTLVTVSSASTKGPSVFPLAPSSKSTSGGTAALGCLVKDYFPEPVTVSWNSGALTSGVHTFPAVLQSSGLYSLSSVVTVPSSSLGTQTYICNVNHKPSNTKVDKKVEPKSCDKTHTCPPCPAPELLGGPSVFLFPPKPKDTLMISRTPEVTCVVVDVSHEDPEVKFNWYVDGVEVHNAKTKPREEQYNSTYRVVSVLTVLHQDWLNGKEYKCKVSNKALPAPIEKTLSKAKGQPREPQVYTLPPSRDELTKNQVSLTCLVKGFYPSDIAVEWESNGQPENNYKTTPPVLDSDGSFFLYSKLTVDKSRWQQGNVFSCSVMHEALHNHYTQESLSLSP
light: B1 light
notes: as for B1
B6: GpH7-B3 variant S239_10E/GpL16-k0 (antibody, human IgG1, kappa)
heavy: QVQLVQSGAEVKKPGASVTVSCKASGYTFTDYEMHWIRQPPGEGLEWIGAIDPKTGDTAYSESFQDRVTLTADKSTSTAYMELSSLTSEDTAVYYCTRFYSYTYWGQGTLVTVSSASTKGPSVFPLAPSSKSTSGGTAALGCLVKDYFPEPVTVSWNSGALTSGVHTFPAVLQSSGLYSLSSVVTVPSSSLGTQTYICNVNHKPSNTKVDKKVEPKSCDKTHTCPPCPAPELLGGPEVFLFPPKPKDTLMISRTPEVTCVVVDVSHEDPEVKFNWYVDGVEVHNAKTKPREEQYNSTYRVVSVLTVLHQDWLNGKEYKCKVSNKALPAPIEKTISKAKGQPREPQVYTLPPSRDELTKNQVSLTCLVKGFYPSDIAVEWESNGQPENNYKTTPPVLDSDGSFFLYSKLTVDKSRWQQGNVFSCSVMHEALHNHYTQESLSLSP
light: B1 light
notes: as for B1
B7: GpH7-B3 variant G237_20W/GpL16-k0 (antibody, human IgG1, kappa)
heavy: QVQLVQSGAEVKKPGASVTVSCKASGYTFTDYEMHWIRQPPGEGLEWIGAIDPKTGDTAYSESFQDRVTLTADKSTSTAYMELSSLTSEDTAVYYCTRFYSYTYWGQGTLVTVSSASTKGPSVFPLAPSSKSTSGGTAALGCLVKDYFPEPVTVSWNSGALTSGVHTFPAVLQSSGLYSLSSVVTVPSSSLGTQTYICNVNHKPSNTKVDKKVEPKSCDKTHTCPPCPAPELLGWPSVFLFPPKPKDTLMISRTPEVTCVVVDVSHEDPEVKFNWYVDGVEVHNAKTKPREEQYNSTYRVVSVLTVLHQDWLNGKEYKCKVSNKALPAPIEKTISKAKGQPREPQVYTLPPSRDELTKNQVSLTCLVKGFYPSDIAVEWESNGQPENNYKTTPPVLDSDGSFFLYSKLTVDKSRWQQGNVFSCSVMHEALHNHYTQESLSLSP
light: B1 light
notes: as for B1
B8: GpH7-B3 variant K326_20W/GpL16-k0 (antibody, human IgG1, kappa)
heavy: not shown
light: B1 light
notes: as for B1
B9: GpH7-B3 variant A327_10E/GpL16-k0 (antibody, human IgG1, kappa)
heavy: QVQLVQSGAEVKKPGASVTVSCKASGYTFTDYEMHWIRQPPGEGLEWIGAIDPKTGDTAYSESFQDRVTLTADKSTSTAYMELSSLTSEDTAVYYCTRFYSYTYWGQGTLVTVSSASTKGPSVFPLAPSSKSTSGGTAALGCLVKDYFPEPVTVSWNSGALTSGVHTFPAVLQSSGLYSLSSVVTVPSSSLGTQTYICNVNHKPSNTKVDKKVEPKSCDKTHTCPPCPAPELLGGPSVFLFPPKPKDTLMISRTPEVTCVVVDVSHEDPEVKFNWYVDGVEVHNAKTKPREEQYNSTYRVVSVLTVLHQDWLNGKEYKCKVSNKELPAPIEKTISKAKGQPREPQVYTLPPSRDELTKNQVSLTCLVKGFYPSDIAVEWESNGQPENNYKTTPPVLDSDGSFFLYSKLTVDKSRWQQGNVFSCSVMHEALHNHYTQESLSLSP
light: B1 light
notes: as for B1
B10: GpH7-B3 variant P331_15Y/GpL16-k0 (antibody, human IgG1, kappa)
heavy: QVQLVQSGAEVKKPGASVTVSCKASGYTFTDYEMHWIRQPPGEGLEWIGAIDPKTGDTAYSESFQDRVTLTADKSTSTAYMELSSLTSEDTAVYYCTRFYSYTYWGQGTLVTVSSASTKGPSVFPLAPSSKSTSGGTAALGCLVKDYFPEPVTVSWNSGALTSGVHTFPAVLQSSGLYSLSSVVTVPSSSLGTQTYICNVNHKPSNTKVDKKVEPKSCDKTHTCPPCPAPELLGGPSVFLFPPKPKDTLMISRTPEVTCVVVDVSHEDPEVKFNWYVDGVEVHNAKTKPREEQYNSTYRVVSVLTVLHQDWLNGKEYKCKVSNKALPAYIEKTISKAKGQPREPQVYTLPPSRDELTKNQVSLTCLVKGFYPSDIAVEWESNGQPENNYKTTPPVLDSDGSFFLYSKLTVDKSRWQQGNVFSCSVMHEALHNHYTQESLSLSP
light: B1 light
notes: as for B1
B11: GpH7-B3 variant S298_08L/GpL16-k0 (antibody, human IgG1, kappa)
heavy: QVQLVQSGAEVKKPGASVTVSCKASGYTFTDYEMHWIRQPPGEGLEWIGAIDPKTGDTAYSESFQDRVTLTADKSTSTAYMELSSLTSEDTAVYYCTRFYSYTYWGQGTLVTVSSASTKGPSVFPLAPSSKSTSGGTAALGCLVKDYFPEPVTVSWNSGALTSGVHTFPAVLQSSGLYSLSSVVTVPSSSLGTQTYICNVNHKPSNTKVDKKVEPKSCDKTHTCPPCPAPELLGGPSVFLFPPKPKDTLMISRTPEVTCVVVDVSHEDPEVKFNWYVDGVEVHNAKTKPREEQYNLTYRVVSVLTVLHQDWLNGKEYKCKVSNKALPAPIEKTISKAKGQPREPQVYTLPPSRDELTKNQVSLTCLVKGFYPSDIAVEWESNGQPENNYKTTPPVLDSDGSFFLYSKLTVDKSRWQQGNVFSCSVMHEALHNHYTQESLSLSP
light: B1 light
notes: as for B1
B12: GpH7-B3 variant S239_08L/GpL16-k0 (antibody, human IgG1, kappa)
heavy: not shown
light: B1 light
notes: as for B1
B13: GpH7-B3 variant L235_20W/GpL16-k0 (antibody, human IgG1, kappa)
heavy: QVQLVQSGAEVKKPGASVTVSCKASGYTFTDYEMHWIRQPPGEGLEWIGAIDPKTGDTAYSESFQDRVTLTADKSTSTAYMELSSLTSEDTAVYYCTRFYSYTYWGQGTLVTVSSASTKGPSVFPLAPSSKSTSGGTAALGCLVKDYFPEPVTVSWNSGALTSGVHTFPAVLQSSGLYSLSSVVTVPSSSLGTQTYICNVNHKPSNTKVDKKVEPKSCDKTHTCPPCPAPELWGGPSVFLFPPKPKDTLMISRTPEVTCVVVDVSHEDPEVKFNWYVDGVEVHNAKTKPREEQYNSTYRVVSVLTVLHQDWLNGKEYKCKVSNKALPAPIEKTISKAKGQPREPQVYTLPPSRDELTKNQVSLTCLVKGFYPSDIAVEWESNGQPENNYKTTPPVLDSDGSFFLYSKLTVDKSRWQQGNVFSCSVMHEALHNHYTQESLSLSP
light: B1 light
notes: as for B1
B14: GpH7-B3 variant K326_15Y/GpL16-k0 (antibody, human IgG1, kappa)
heavy: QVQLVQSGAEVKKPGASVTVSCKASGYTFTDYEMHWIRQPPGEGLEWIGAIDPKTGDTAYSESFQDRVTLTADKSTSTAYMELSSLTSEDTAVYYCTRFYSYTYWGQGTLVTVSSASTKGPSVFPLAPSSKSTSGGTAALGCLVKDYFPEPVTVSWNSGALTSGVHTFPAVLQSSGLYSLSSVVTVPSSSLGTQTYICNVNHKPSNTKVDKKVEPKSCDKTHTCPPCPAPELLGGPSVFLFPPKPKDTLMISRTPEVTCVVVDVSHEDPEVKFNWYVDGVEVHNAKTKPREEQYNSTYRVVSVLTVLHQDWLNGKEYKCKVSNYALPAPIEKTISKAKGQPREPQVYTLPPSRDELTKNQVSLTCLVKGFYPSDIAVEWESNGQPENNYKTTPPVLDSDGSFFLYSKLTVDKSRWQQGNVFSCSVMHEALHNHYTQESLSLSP
light: B1 light
notes: as for B1
B15: GpH7-A5/GpH7-B3 variant S337_14T/GpL16-k0 (antibody, human IgG1, kappa)
heavy 1: not shown
heavy 2: not shown
light: B1 light
notes: also called He Ab S337_14T
B16: GpH7-A5/GpH7-B3 variant S337_10E/GpL16-k0 (antibody, human IgG1, kappa)
heavy 1: not shown
heavy 2: not shown
light: B1 light
notes: also called He Ab S337_10E
B17: GpH7-A5/GpH7-B3 variant S324_09D/GpL16-k0 (antibody, human IgG1, kappa)
heavy 1: not shown
heavy 2: not shown
light: B1 light
notes: also called He Ab S324_09D
B18: GpH7-A5/GpH7-B3 variant T335_19Q/GpL16-k0 (antibody, human IgG1, kappa)
heavy 1: not shown
heavy 2: not shown
light: B1 light
notes: also called He Ab T335_19Q
B19: GpH7-A5/GpH7-B3 variant T335_15Y/GpL16-k0 (antibody, human IgG1, kappa)
heavy 1: not shown
heavy 2: not shown
light: B1 light
notes: also called He Ab T335_15Y
B20: GpH7-A5/GpH7-B3 variant T335_01G/GpL16-k0 (antibody, human IgG1, kappa)
heavy 1: not shown
heavy 2: not shown
light: B1 light
notes: also called He Ab T335_01G
B21: GpH7-A5/GpH7-B3 variant T335_07I/GpL16-k0 (antibody, human IgG1, kappa)
heavy 1: not shown
heavy 2: not shown
light: B1 light
notes: also called He Ab T335_07I
B22: GpH7-A5/GpH7-B3 variant T335_10E/GpL16-k0 (antibody, human IgG1, kappa)
heavy 1: not shown
heavy 2: not shown
light: B1 light
notes: also called He Ab T335_10E
B23: GpH7-A5/GpH7-B3 variant T335_16H/GpL16-k0 (antibody, human IgG1, kappa)
heavy 1: not shown
heavy 2: not shown
light: B1 light
notes: also called He Ab T335_16H
B24: GpH7-A5/GpH7-B3 variant S324_10E/GpL16-k0 (antibody, human IgG1, kappa)
heavy 1: not shown
heavy 2: not shown
light: B1 light
notes: also called He Ab S324_10E
B25: GpH7-A5/GpH7-B3 variant S337_09D/GpL16-k0 (antibody, human IgG1, kappa)
heavy 1: not shown
heavy 2: not shown
light: B1 light
notes: also called He Ab S337_09D
B26: GpH7-A5/GpH7-B3 variant S324_20W/GpL16-k0 (antibody, human IgG1, kappa)
heavy 1: not shown
heavy 2: not shown
light: B1 light
notes: also called He Ab S324_20W
B27: GpH7-A5/GpH7-B3 variant T335_13S/GpL16-k0 (antibody, human IgG1, kappa)
heavy 1: not shown
heavy 2: not shown
light: B1 light
notes: also called He Ab T335_13S
B28: GpH7-A5/GpH7-B3 variant S337_16H/GpL16-k0 (antibody, human IgG1, kappa)
heavy 1: not shown
heavy 2: not shown
light: B1 light
notes: also called He Ab S337_16H

Biological target: T1, FcγRIIa R (extracellular domain with a …)
Assay: SPR Biacore, relative binding

| Ho/Con_2aR | Binder |
| --- | --- |
| 110 % of GpH7-B3/GpL16-k0 (=100) | B1 |
| 106 % of GpH7-B3/GpL16-k0 (=100) | B2 |
| 115 % of GpH7-B3/GpL16-k0 (=100) | B3 |
| 101 % of GpH7-B3/GpL16-k0 (=100) | B4 |
| 105 % of GpH7-B3/GpL16-k0 (=100) | B5 |
| 122 % of GpH7-B3/GpL16-k0 (=100) | B6 |
| 107 % of GpH7-B3/GpL16-k0 (=100) | B7 |
| 120 % of GpH7-B3/GpL16-k0 (=100) | B8 |
| 104 % of GpH7-B3/GpL16-k0 (=100) | B9 |
| 105 % of GpH7-B3/GpL16-k0 (=100) | B10 |
| 101 % of GpH7-B3/GpL16-k0 (=100) | B11 |
| 106 % of GpH7-B3/GpL16-k0 (=100) | B12 |
| 114 % of GpH7-B3/GpL16-k0 (=100) | B13 |
| 134 % of GpH7-B3/GpL16-k0 (=100) | B14 |

Biological target: T2, FcγRIIa H
Assay: SPR Biacore, relative binding

| He/Con_2aH | Binder |
| --- | --- |
| 103 % of GpH7-A5/GpH7-B3/GpL16-k0 (=100) | B15 |
| 102 % of GpH7-A5/GpH7-B3/GpL16-k0 (=100) | B16 |
| 106 % of GpH7-A5/GpH7-B3/GpL16-k0 (=100) | B17 |
| 103 % of GpH7-A5/GpH7-B3/GpL16-k0 (=100) | B18 |
| 106 % of GpH7-A5/GpH7-B3/GpL16-k0 (=100) | B19 |
| 103 % of GpH7-A5/GpH7-B3/GpL16-k0 (=100) | B20 |
| 108 % of GpH7-A5/GpH7-B3/GpL16-k0 (=100) | B21 |
| 108 % of GpH7-A5/GpH7-B3/GpL16-k0 (=100) | B22 |
| 105 % of GpH7-A5/GpH7-B3/GpL16-k0 (=100) | B23 |
| 103 % of GpH7-A5/GpH7-B3/GpL16-k0 (=100) | B24 |
| 107 % of GpH7-A5/GpH7-B3/GpL16-k0 (=100) | B25 |
| 103 % of GpH7-A5/GpH7-B3/GpL16-k0 (=100) | B26 |
| 106 % of GpH7-A5/GpH7-B3/GpL16-k0 (=100) | B27 |
| 101 % of GpH7-A5/GpH7-B3/GpL16-k0 (=100) | B28 |
